B1: TPP-31291 (antibody, IgG4, V domains shown)
VH: EVQLLESGGGLVQPGGSLRLSCAASGFTFSHYGMNWLRQAPGKGLEWVGVISYDGSNKFYADFVKGRFTISRDNSKNTLYLQMNSLRAEDTAVYYCARTPGSHFDYWGQGTLVTVSS
VL: QSVLTQPPSASGTPGQRVTISCSGSSSNIGNNAVNWYQQLPGTAPKLLIYYDDLLPSGVPDRFSGSKSGTSASLAISGLRSEDEADYYCSAWDDSLNGVVFGGGTKLTVL
B2: TPP-26291 (antibody, V domains shown)
VH: EVQLLESGGGLVQPGGSLRLSCAASGFTFSSYGMHWVRQAPGKGLEWVSVISYDGSYKYYADSVKGRFTISRDNSKNTLYLQMNSLRAEDTAVYYCAAGVPDYWGQGTLVTVSS
VL: QSVLTQPPSASGTPGQRVTISCTGSSSNIGAGYDVHWYQQLPGTAPKLLIYSNNERPSGVPDRFSGSKSGTSASLAISGLRSEDEADYYCAAWDPSLNGPVFGGGTKLTVL
B3: TPP-26297 (antibody, V domains shown)
VH: B2 VH
VL: B2 VL with D94Q, P95D
B4: TPP-26295 (antibody, V domains shown)
VH: B2 VH
VL: B2 VL with P95H
B5: TPP-26292 (antibody, V domains shown)
VH: B2 VH
VL: B2 VL with P95E
B6: TPP-26294 (antibody, V domains shown)
VH: B2 VH
VL: B2 VL with G32A, P95D
B7: TPP-26296 (antibody, V domains shown)
VH: B2 VH
VL: B2 VL with P95N
B8: TPP-26293 (antibody, V domains shown)
VH: B2 VH
VL: B2 VL with G32W, P95D
B9: TPP-26298 (antibody, V domains shown)
VH: B2 VH
VL: B2 VL with T23L, P95D

Residue numbers refer to the chain shown, from its start.

The target in the first assay is T1, murine IL-11 (mouse, UniProt P47873 22-199).
T1 sequence: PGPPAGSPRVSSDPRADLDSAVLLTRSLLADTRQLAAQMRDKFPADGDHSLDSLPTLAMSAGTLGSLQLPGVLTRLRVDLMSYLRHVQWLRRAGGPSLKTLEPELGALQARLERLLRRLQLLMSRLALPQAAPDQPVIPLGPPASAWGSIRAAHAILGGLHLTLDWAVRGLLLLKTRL
Kind of assay: cell-based or functional assay.
Turning to B1, the “IC50, RGA 1” value is over 500 nM.

For the next assay, the target named is T2, human IL-11 (human, UniProt P20809 22-199).
T2 sequence: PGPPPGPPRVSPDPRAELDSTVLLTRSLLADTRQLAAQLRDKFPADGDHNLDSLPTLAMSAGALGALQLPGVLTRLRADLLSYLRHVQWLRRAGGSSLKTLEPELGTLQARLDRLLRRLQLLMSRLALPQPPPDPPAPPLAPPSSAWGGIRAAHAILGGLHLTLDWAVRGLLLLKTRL
Kind of assay: cell-based or functional assay.
Consider B1, for which the “IC50, RGA 1” value is over 500 nM.

The target in the next assay is T3, human IL-11 (human, UniProt P20809 22-199).
T3 sequence: T2 sequence
The experiment in a line: cell-based or functional assay.
With B2, the “RGA Efficacy (%)” value is 68.9% and the “RGA IC50” value came out at 4.1 nM.
Taken in the same sequence, the figures for B3 were 57.1% and 3.7 nM.
For B4 the same measures were 69.2% and 13 nM.
In the case of B5, the “RGA Efficacy (%)” value is 74% and the “RGA IC50” value stood at 5.6 nM.
Taken in the same sequence, the figures for B6 were 69.4% and 9.8 nM.
Regarding B7, the “RGA Efficacy (%)” value was 71% and the “RGA IC50” value is 20 nM.
For B8 the same measures were 73.7% and 2.8 nM.
With B9, the “RGA Efficacy (%)” value was determined as 62.9% and the “RGA IC50” value turned out to be 4.1 nM.

For a further assay, the target named is T4, murine IL-11 (mouse, UniProt P47873 22-199).
T4 sequence: T1 sequence
The experiment in a line: cell-based or functional assay.
Turning to B2, the “RGA Efficacy (%)” value worked out at 92.1% and the “RGA IC50” value is 1.6 nM.
In the case of B3, the “RGA Efficacy (%)” value worked out at 93.5% and the “RGA IC50” value was determined as 1.8 nM.
B4: the “RGA Efficacy (%)” value amounted to 93.9% and the “RGA IC50” value came to 2.1 nM.
For B5 the same measures were 94.7% and 0.94 nM.
Taken in the same sequence, the figures for B6 were 97.9% and 1.5 nM.
On to B7, for which the “RGA Efficacy (%)” value is 93.1% and the “RGA IC50” value was 2.9 nM.
For B8 the same measures were 96.9% and 0.95 nM.
Taken in the same sequence, the figures for B9 were 96.3% and 1.5 nM.

For the next assay, the target named is T5, human IL2Ra (human, UniProt P01589 22-240, limits assumed).
T5 construct: bought protein, coated on the plate; also called hIL2RA; IL-2 receptor alpha
T5 sequence (looked up): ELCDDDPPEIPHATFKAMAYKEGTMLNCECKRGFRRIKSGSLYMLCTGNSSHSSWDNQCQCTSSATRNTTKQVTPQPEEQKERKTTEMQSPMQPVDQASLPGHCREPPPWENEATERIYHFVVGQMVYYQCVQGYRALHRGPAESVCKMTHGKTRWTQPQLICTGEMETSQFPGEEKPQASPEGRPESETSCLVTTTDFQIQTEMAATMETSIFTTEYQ
The experiment in a line: IL2Ra direct binding ELISA, signal ratio to isotype control. The method, then: IL2RA (Peprotech, Germany, #200-02RC) was coated at 1 or 0 μg/ml (buffer only control) in 30 μl coating buffer (Candor, #113500) per well on a 384 well microtiter plate (Maxisorb, Nunc, #460518) over night at 4-8° C. After two washes with 50 μl/well washing buffer (PBS+0.05% Tween, pH 7.4), the plates were incubated for two hours at room temperature with 50 μl/well SmartBlock (Candor, #113500). After blocking, the plates were washed three times with washing buffer. Then, a dilution series of the respective antibody (1E-7 [M] down to 2E-13 [M]) in PBS+0.05% Tween, 10% SmartBlock were added in 30 μl to the microtiter plate and incubated for 90 min at room temperature. After three additional washes, 30 μl anti mouse IgG HRP-conjugated antibody (Biotechne, HAF007), diluted 1:1000 in PBS+0.05% Tween (pH 7.4), were added per well and incubated for one hour. After three additional washes, a mixture of Amplex red (Invitrogen, #12222, 10 mM stock solution in DMSO) 1:1000 diluted in PBS and H2O2 (30%, Merck, #107209)) diluted 1:10000 in PBS were added as substrate with 30 μl per well and incubated for 20 min in the dark. Relative fluorescence was measured with a microtiter plate reader at 535/590 nm.
Next, the 42 antibodies were subjected to an IL2Ra binding ELISA as described in Example 20.
For orientation: An ELISA detects its analyte on a solid surface through an enzyme-linked reagent.
As to B2, the “hIL2RA ELISA Binding: Ratio to Isotpye” value came out at 334 ratio.
With B3, the “hIL2RA ELISA Binding: Ratio to Isotpye” value came to 183 ratio.
On the same count and under the same terms, as for B4, the figure is 385 ratio; as for B5, 557 ratio; as for B6, 275 ratio.
For the molecule B7, the “hIL2RA ELISA Binding: Ratio to Isotpye” value was 379 ratio.
Same read-out and setting: as for B8, the figure is 384 ratio; as for B9, 474 ratio.
